These results are taken from patent publication US20040248787A1.

In this assay the target is normal MITF (M type), expressed from plasmid pSU063 (MITF-M/pCDNA3) in COS7 cells (UniProt Q08874). Briefly: cell-based or functional assay.
Sequence of UniProt Q08874 (Q08874 other isoform, or with tags, fused parts or gaps limits assumed): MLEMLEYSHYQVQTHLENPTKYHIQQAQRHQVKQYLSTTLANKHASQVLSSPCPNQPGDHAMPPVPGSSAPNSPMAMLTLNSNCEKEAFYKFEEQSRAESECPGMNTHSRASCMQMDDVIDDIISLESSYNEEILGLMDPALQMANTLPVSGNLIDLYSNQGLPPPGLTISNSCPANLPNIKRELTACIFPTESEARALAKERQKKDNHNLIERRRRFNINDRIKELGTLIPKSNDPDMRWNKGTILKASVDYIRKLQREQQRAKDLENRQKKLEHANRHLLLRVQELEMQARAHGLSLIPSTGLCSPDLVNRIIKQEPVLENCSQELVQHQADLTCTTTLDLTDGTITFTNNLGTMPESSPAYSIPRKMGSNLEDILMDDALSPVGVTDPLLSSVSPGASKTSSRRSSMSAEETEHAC

Substance “His Tag-PTD-mi variant of MITF (from UniProt Q08874 119-526)” showed a Luciferase activity (c-kit promoter R-luc reporter in COS7 cells, PBS addition taken as 1) (relative to PBS = 1) of 0.92.

In turn, “His Tag-PTD-wh variant of MITF (from UniProt Q08874 119-526)” yielded a Luciferase activity (c-kit promoter R-luc reporter in COS7 cells, PBS addition taken as 1) (relative to PBS = 1) of 0.72.
